Data taken from PMC6555802, “CHML promotes liver cancer metastasis by facilitating Rab14 recycle” (Nature Communications, 2019).

Molecular target: T1, Rab14 (fluorescence titration) (human, UniProt P61106 1-215)
T1 construct: Rab14
Assay: other fluorescence titration; fluorescence titration assay (Supplementary Fig. 8); conditions not stated in the text shown
Settings: both partners purified

B1: CHML (fluorescence titration) (natural protein)
chain: MADNLPTEFDVVIIGTGLPESILAAACSRSGQRVLHIDSRSYYGGNWASFSFSGLLSWLKEYQQNNDIGEESTVVWQDLIHETEEAITLRKKDETIQHTEAFCYASQDMEDNVEEIGALQKNPSLGVSNTFTEVLDSALPEESQLSYFNSDEMPAKHTQKSDTEISLEVTDVEESVEKEKYCGDKTCMHTVSDKDGDKDESKSTVEDKADEPIRNRITYSQIVKEGRRFNIDLVSKLLYSQGLLIDLLIKSDVSRYVEFKNVTRILAFREGKVEQVPCSRADVFNSKELTMVEKRMLMKFLTFCLEYEQHPDEYQAFRQCSFSEYLKTKKLTPNLQHFVLHSIAMTSESSCTTIDGLNATKNFLQCLGRFGNTPFLFPLYGQGEIPQGFCRMCAVFGGIYCLRHKVQCFVVDKESGRCKAIIDHFGQRINAKYFIVEDSYLSEETCSNVQYKQISRAVLITDQSILKTDLDQQTSILIVPPAEPGACAVRVTELCSSTMTCMKDTYLVHLTCSSSKTAREDLESVVKKLFTPYTETEINEEELTKPRLLWALYFNMRDSSGISRSSYNGLPSNVYVCSGPDCGLGNEHAVKQAETLFQEIFPTEEFCPPPPNPEDIIFDGDDKQPEAPGTNNVVMAKLESSEESKNLESPEKHLQN
notes: choroideremia-like (CHML, REP2)
Q: B1 was tested. Which Kd did it give?
A: ~0.36 nM
